Measured values published in US10941182 (Amgen, dated 2021).
Starred links: 1 amine or outer side, 2 acyl side, 3 side chain; linkers in the order of their positions; H or OH if unused. Non-standard residues stand in square brackets, D forms with d. Primed or numbered codes have the meaning given here. *: point of attachment. NPipG = 2-(piperidin-4-ylamino)acetic acid, O=C(CN(C1CCN([*:3])CC1)[*:1])[*:2]; AC4Abu = α-carboxy-4-aminobutyric acid, O=C(C(CCN[*:1])C(=O)[*:3])[*:2]; Bip = N[C@@H](Cc1ccc(-c2ccccc2)cc1)C(=O)O; Oic = O=C(O)[C@@H]1C[C@@H]2CCCC[C@@H]2N1; Phe(4-Cl) = N[C@@H](Cc1ccc(Cl)cc1)C(=O)O; Phe(4-F) = N[C@@H](Cc1ccc(F)cc1)C(=O)O; γGlu = O=C(O)[C@H](CCC(=O)[*:2])N[*:1]; d(β3hF) = N[C@@H](CC(=O)O)Cc1ccccc1; Igl = N[C@H](C(=O)O)C1Cc2ccccc2C1; NMeR = CN[C@@H](CCCNC(=N)N)C(=O)O; Palmitoyl = CCCCCCCCCCCCCCCC(=O)*; hArg = N=C(N)NCCCC[C@H](N)C(=O)O; 3Pal = N[C@@H](Cc1cccnc1)C(=O)O; Cha = N[C@@H](CC1CCCCC1)C(=O)O; αMeL = CC(C)C[C@](C)(N)C(=O)O; αMeOrn = C[C@](N)(CCCN)C(=O)O; β3hP = O=C(O)C[C@@H]1CCCN1; αMeS = C[C@](N)(CO)C(=O)O; Nle = CCCC[C@H](N)C(=O)O; Orn = NCCC[C@H](N)C(=O)O; Dab = NCC[C@H](N)C(=O)O; Pip′ = not defined here; Dap = NC[C@H](N)C(=O)O; AEEA = NCCOCCOCC(=O)O; Aib = CC(C)(N)C(=O)O; NPrGly = CCCNCC(=O)O; BLeu = β-leucine; Sar = CNCC(=O)O

Tests used:
rat APJ receptor = target: T1, rat APJ receptor (rat, UniProt Q9JHG3 1-377); experiment: cell-based or functional assay
T1 sequence (looked up): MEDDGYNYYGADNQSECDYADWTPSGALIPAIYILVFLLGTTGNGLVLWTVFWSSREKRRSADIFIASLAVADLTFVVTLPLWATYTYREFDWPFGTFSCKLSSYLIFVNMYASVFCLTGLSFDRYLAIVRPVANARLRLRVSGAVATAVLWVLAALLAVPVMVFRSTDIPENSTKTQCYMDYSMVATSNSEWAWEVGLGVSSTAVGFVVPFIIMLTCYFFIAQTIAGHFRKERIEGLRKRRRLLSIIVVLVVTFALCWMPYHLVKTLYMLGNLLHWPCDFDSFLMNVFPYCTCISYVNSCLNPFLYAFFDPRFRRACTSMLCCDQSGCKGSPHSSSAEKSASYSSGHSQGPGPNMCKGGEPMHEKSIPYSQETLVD

human APJ receptor = target: T2, human APJ receptor (human, UniProt P35414 1-380); experiment: cell-based or functional assay
T2 sequence (looked up): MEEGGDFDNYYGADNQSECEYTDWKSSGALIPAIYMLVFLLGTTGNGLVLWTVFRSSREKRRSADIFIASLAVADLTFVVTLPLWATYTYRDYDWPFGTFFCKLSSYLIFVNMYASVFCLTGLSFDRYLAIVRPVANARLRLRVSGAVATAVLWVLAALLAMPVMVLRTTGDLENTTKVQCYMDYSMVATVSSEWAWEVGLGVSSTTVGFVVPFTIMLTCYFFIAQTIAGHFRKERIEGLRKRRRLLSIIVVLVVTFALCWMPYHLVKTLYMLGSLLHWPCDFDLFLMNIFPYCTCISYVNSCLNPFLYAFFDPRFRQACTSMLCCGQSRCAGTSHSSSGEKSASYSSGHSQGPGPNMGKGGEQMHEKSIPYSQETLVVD

Row | Binder | EC50 Rat APJ Receptor (rat APJ receptor) | EC50 Human APJ Receptor (human APJ receptor)
1 | Palmitoyl-[γGlu][AEEA][AEEA][dQ]RP[NMeR][Cha][BLeu]HKG[Oic][Nle][β3hP][d(β3hF)]-OH [SEQ ID NO: 615] | 23.2 nM | 9.42 nM
2 | Palmitoyl-[γGlu][AEEA][AEEA][dQ]RP[NMeR][αMeL][BLeu]HKG[Oic][Nle][β3hP][Phe(4-Cl)]-OH [SEQ ID NO: 628] | 0.773 nM | 0.309 nM
3 | Palmitoyl-[γGlu][AEEA][AEEA][dQ]RP[NMeR][αMeL]S[Bip]KG[Oic][Nle][β3hP][Phe(4-Cl)]-OH (SMILES CCCCCCCCCCCCCCCC(=O)N[C@@H](CCC(=O)NCCOCCOCC(=O)NCCOCCOCC(=O)N[C@H](CCC(N)=O)C(=O)N[C@@H](CCCNC(=N)N)C(=O)N1CCC[C@H]1C(=O)N(C)[C@@H](CCCNC(=N)N)C(=O)N[C@@](C)(CC(C)C)C(=O)N[C@@H](CO)C(=O)N[C@@H](Cc1ccc(-c2ccccc2)cc1)C(=O)N[C@@H](CCCCN)C(=O)NCC(=O)N1[C@H](C(=O)N[C@@H](CCCC)C(=O)N2CCC[C@H]2CC(=O)N[C@@H](Cc2ccc(Cl)cc2)C(=O)O)C[C@@H]2CCCC[C@@H]21)C(=O)O) [SEQ ID NO: 629] | 5.3 nM | 2.45 nM
4 | Palmitoyl-[γGlu][AEEA][AEEA][dQ]RP[NMeR][αMeL]SH[Orn]G[Oic][Nle][β3hP][Phe(4-Cl)]-OH (SMILES CCCCCCCCCCCCCCCC(=O)N[C@@H](CCC(=O)NCCOCCOCC(=O)NCCOCCOCC(=O)N[C@H](CCC(N)=O)C(=O)N[C@@H](CCCNC(=N)N)C(=O)N1CCC[C@H]1C(=O)N(C)[C@@H](CCCNC(=N)N)C(=O)N[C@@](C)(CC(C)C)C(=O)N[C@@H](CO)C(=O)N[C@@H](Cc1c[nH]cn1)C(=O)N[C@@H](CCCN)C(=O)NCC(=O)N1[C@H](C(=O)N[C@@H](CCCC)C(=O)N2CCC[C@H]2CC(=O)N[C@@H](Cc2ccc(Cl)cc2)C(=O)O)C[C@@H]2CCCC[C@@H]21)C(=O)O) [SEQ ID NO: 634] | 2.21 nM | 0.164 nM
5 | Palmitoyl-[γGlu][AEEA][AEEA][dQ][hArg]P[dR][Cha]SHKG[Oic][Nle]P[d(β3hF)]-OH (SMILES CCCCCCCCCCCCCCCC(=O)N[C@@H](CCC(=O)NCCOCCOCC(=O)NCCOCCOCC(=O)N[C@H](CCC(N)=O)C(=O)N[C@@H](CCCCNC(=N)N)C(=O)N1CCC[C@H]1C(=O)N[C@H](CCCNC(=N)N)C(=O)N[C@@H](CC1CCCCC1)C(=O)N[C@@H](CO)C(=O)N[C@@H](Cc1c[nH]cn1)C(=O)N[C@@H](CCCCN)C(=O)NCC(=O)N1[C@H](C(=O)N[C@@H](CCCC)C(=O)N2CCC[C@H]2C(=O)N[C@@H](CC(=O)O)Cc2ccccc2)C[C@@H]2CCCC[C@@H]21)C(=O)O) [SEQ ID NO: 614] | 10.3 nM | 1.25 nM
6 | Palmitoyl-[AC4Abu][AEEA][AEEA][dQ]RP[NMeR][Cha][NPrGly]HKG[Pip′][Nle][Aib][Phe(4-Cl)]-OH [SEQ ID NO: 643] | 3.79 nM | 0.463 nM
7 | Palmitoyl-[AC4Abu][AEEA][AEEA][dQ]RP[NMeR][αMeL]SH[Igl]G[Oic][Nle][β3hP][Phe(4-Cl)]-OH [SEQ ID NO: 640] | 25.2 nM | 4.03 nM
8 | Palmitoyl-[γGlu][AEEA][AEEA][dQ]RP[NMeR][αMeL]SH[Dab]G[Oic][Nle][β3hP][Phe(4-Cl)]-OH [SEQ ID NO: 638] | 9.32 nM | 3.2 nM
9 | Palmitoyl-[γGlu][AEEA][AEEA][dQ]RP[NMeR][αMeL]SHKG[Oic][Nle][β3hP][Phe(4-Cl)]-OH (not fully specified (residue 10)) [SEQ ID NO: 631] | 0.699 nM | 0.338 nM
10 | Palmitoyl-[γGlu][AEEA][AEEA][dQ]RP[NMeR][αMeL]SH[3Pal]G[Oic][Nle][β3hP][Phe(4-Cl)]-OH (SMILES CCCCCCCCCCCCCCCC(=O)N[C@@H](CCC(=O)NCCOCCOCC(=O)NCCOCCOCC(=O)N[C@H](CCC(N)=O)C(=O)N[C@@H](CCCNC(=N)N)C(=O)N1CCC[C@H]1C(=O)N(C)[C@@H](CCCNC(=N)N)C(=O)N[C@@](C)(CC(C)C)C(=O)N[C@@H](CO)C(=O)N[C@@H](Cc1c[nH]cn1)C(=O)N[C@@H](Cc1cccnc1)C(=O)NCC(=O)N1[C@H](C(=O)N[C@@H](CCCC)C(=O)N2CCC[C@H]2CC(=O)N[C@@H](Cc2ccc(Cl)cc2)C(=O)O)C[C@@H]2CCCC[C@@H]21)C(=O)O) [SEQ ID NO: 636] | 3.65 nM | 1.59 nM
11 | Palmitoyl-[γGlu][AEEA][AEEA][dQ]RP[NMeR][αMeL][αMeS]HKG[Oic][Nle][β3hP][Phe(4-Cl)]-OH (SMILES CCCCCCCCCCCCCCCC(=O)N[C@@H](CCC(=O)NCCOCCOCC(=O)NCCOCCOCC(=O)N[C@H](CCC(N)=O)C(=O)N[C@@H](CCCNC(=N)N)C(=O)N1CCC[C@H]1C(=O)N(C)[C@@H](CCCNC(=N)N)C(=O)N[C@@](C)(CC(C)C)C(=O)N[C@@](C)(CO)C(=O)N[C@@H](Cc1c[nH]cn1)C(=O)N[C@@H](CCCCN)C(=O)NCC(=O)N1[C@H](C(=O)N[C@@H](CCCC)C(=O)N2CCC[C@H]2CC(=O)N[C@@H](Cc2ccc(Cl)cc2)C(=O)O)C[C@@H]2CCCC[C@@H]21)C(=O)O) [SEQ ID NO: 627] | 0.641 nM | 0.244 nM
12 | Palmitoyl-[γGlu][AEEA][AEEA][dQ]RP[NMeR][αMeL]SH[Dap]G[Oic][Nle][β3hP][Phe(4-Cl)]-OH [SEQ ID NO: 639] | 15.4 nM | 3.28 nM
13 | Palmitoyl-[AC4Abu][AEEA][AEEA][dQ][NPipG]P[NMeR][Cha]SHKG[Pip′][Nle][Aib][Phe(4-Cl)]-OH [SEQ ID NO: 646] | 0.994 nM | 0.27 nM
14 | Palmitoyl-[γGlu][AEEA][AEEA][dQ]RP[NMeR][αMeL]SH[αMeOrn]G[Oic][Nle][β3hP][Phe(4-Cl)]-OH (SMILES CCCCCCCCCCCCCCCC(=O)N[C@@H](CCC(=O)NCCOCCOCC(=O)NCCOCCOCC(=O)N[C@H](CCC(N)=O)C(=O)N[C@@H](CCCNC(=N)N)C(=O)N1CCC[C@H]1C(=O)N(C)[C@@H](CCCNC(=N)N)C(=O)N[C@@](C)(CC(C)C)C(=O)N[C@@H](CO)C(=O)N[C@@H](Cc1c[nH]cn1)C(=O)N[C@@](C)(CCCN)C(=O)NCC(=O)N1[C@H](C(=O)N[C@@H](CCCC)C(=O)N2CCC[C@H]2CC(=O)N[C@@H](Cc2ccc(Cl)cc2)C(=O)O)C[C@@H]2CCCC[C@@H]21)C(=O)O) [SEQ ID NO: 635] | 6.64 nM | 1.62 nM
15 | Palmitoyl-[AC4Abu][AEEA][AEEA][dQ]RP[NMeR][αMeL]SHK[Sar][Oic][Nle][β3hP][Phe(4-Cl)]-OH [SEQ ID NO: 641] | 3.66 nM | 0.58 nM
16 | Palmitoyl-[γGlu][AEEA][AEEA][dQ]RP[NMeR][αMeL]SH[Phe(4-F)]G[Oic][Nle][β3hP][Phe(4-Cl)]-OH [SEQ ID NO: 637] | 14.2 nM | 4.05 nM
17 | Palmitoyl-[γGlu][AEEA][AEEA][dQ]RP[NMeR][αMeL]SH[NPipG]G[Oic][Nle][β3hP][Phe(4-Cl)]-OH (SMILES CCCCCCCCCCCCCCCC(=O)N[C@@H](CCC(=O)NCCOCCOCC(=O)NCCOCCOCC(=O)N[C@H](CCC(N)=O)C(=O)N[C@@H](CCCNC(=N)N)C(=O)N1CCC[C@H]1C(=O)N(C)[C@@H](CCCNC(=N)N)C(=O)N[C@@](C)(CC(C)C)C(=O)N[C@@H](CO)C(=O)N[C@@H](Cc1c[nH]cn1)C(=O)N(CC(=O)NCC(=O)N1[C@H](C(=O)N[C@@H](CCCC)C(=O)N2CCC[C@H]2CC(=O)N[C@@H](Cc2ccc(Cl)cc2)C(=O)O)C[C@@H]2CCCC[C@@H]21)C1CCNCC1)C(=O)O) [SEQ ID NO: 632] | 22 nM | 3.02 nM
